The source of these data is the supplement of paper PMC12042874.

± gives the uncertainty stated by the source.

A short description of the series: amyloid nucleation score (Sup35N fusion, yeast selection) (log enrichment); library NNK3; higher = more nucleation; inactive = no reads after selection. The essentials: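 Nucleation score is defined as the DiMSum log enrichment of output over input reads, with centring on the mode score of non-aggregating sequences. A minimum of 100 input reads was required for each sequence. Reads came from Illumina sequencing of plasmid inserts from psi-negative yeast expressing Sup35N fused to peptides of 20 random codons, induced with 100 μM copper sulfate for 24 hours and grown 7 days at 30°C on medium lacking adenine and uracil.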

RLGFDITKITWCGIYFAGWV: the amyloid nucleation score result was “inactive”.

For the substance KGYGCFTGMYSENARMMVIS, the amyloid nucleation score worked out at 0.136 ± 0.66. On to YVVNFVLL, for which the amyloid nucleation score came out at 2.43 ± 0.085. The figure for PYTWAMHLNLLITTDR is -0.032 ± 0.54; for LRTPGTGSFAESEDLSMTEG it is “inactive”.

With RMVPKMSVCS, the amyloid nucleation score result was “inactive”. The entry for RDDNAKNVGSPRAAHTRALR is “inactive”; for ALNWISYREMHIFIAYFADS it is “inactive”; for CLTVHTVNIIGMNFIVNVAL it is 2.72 ± 0.085. As for GVGSRG, the entry is “inactive”. The entry for WEGRLDCFSMRWLQMLGSND is “inactive”; for FFSFTISMAWKGQVTELKCQ it is “inactive”. Take SGLVCVT: the amyloid nucleation score entry was “inactive”. Consider PWDQDGGSTYSKGGPSNWEF, for which the amyloid nucleation score entry was “inactive”.

For the substance PSMKL, the amyloid nucleation score entry was “inactive”. As for ISVFIRTCMWKFVVVPRGYW, the entry is “inactive”. As for GLCRWVTPTAWSAIVVQFCV, the amyloid nucleation score result is “inactive”. The entry for LRKRELCGIPSINAAPGLLG is “inactive”; for YVKMWHGFYFDRGNGRRDLN it is “inactive”; for MYNSTLSWRL it is “inactive”.

As to VVSIAIGKYNDRSMWW, the amyloid nucleation score was determined as 1.75 ± 0.071. The entry for EYELESESKCPLDFAFIKKG is “inactive”. As for VIYHPRFSRFLCEDWHDTCS, the entry is “inactive”; as for QNCVTDMSKNLGIVREFSCS, “inactive”; as for VSRKRQLWEKCGTFVQRASM, “inactive”.

For LLLVWRLKVSGGLDSNRTGV, the amyloid nucleation score was determined as 1.05 ± 0.13. As for VSLGFEFMGFHAGW, the figure is 1.09 ± 0.15; as for PCYDWCLQSGR, “inactive”.

For THSDYSEPRI, the amyloid nucleation score result is “inactive”. As for ASGVATSFGFRLWSCVEDIE, the entry is “inactive”; as for LFLMWRTYYVNILESSCVVC, “inactive”; as for DVYKNPLSEQPSRYCTE, “inactive”. As for FYSMSLVSFCFYGDLYLDNG, the figure is 2.76 ± 0.077; as for ITRTYNYLYTCINTFRQPSV, 0.045 ± 0.45; as for FNVLMGTSYFAISEIASVPA, “inactive”. As for SPCYISINTFPVRKILYPCI, the figure is -0.264 ± 0.64; as for FSYEMFNAMGYFPIASLCSF, “inactive”. With RWCYLTEKKFSGLFNL, the amyloid nucleation score entry is “inactive”. As for EYKAPREFPSTNCIHFNLMT, the entry is “inactive”; as for ILKMFTSGYCRVLWDLVVMV, “inactive”; as for GGYQAQTWL, “inactive”. As for DCFSGIGCSRRKT, the entry is “inactive”. The entry for IRSLLLILVRSAVPSALSVN is “inactive”; for PFAST it is “inactive”. Take WFDWVMVTYEGLSTVF: the amyloid nucleation score result is “inactive”. ELGFCNWGGLSWLNQDSSGV came in with an amyloid nucleation score of -0.085 ± 1. The substance SCKGNVFVSSGWEFGAYFTG displayed an amyloid nucleation score of 0.751 ± 0.23. As for WKEWLGMGLLVSNAGHKQGG, the entry is “inactive”. As for LWPRRADVKQASRQPDYQCV, the figure is -0.727 ± 1. As for GSYSGM, the entry is “inactive”; as for KRLLVKVLLDVIGAYRDSSC, “inactive”. In turn, GNMQVRYRIESANNRMGQRE displayed an amyloid nucleation score of 0.261 ± 0.47. As for GLFRRVRGIRT, the entry is “inactive”; as for RSMHLTWYW, 1.4 ± 0.11. The entry for ESMRGSYSYYSSGCLHD is “inactive”. As for VSFRYAYYWFCRTMMTAAKR, the entry is “inactive”; as for ILIDSGSTLFSIIFQGLLLI, “inactive”; as for IEYRKITKLIKLGISGVERS, -0.978 ± 1.3. FSSKDRLGSHSRYYFYCATL: the amyloid nucleation score result is “inactive”. The entry for IWILRKVVLRVVWMRYLGVK is “inactive”; for SFYSNFRESRDLSSYTLNIS it is “inactive”. The entry for IRESFINGVYMVVSEFKCFT is “inactive”; for GVSISQPTILQWSTVRTSID it is 0.04 ± 0.85. On to TVCLVAITKAPRRCNSQHWD, for which the amyloid nucleation score is -0.917 ± 1.9. As for DFDAC, the figure is 0.021 ± 0.52; as for PITDNHFG, -0.697 ± 1.4; as for TTGMRYCLVFDIGFSFWLFM, “inactive”. As for RCGILW, the entry is “inactive”; as for RMTMFRTEAAVVKRSVSTVV, “inactive”; as for GPLSHRN, “inactive”. The entry for SDVIGLLFGEYNISVVLRGR is “inactive”. Take NKFFDI: the amyloid nucleation score entry was “inactive”.

In the case of SCQKIALIWIRLTTDMRRRC, the amyloid nucleation score entry is “inactive”. The entry for FYNVRF is “inactive”; for SFTLPSIGWWYALFRSYWID it is “inactive”. The entry for NRFYVD is “inactive”. As for FSDCFSRLVYPRGNNLV, the entry is “inactive”.

For the substance RFIDWQVCD, the amyloid nucleation score entry is “inactive”. As for SSLTSNCPRKALKREVVRHW, the entry is “inactive”; as for GYQNVSTHRVKALAHRIWVG, “inactive”; as for CACIPNFPCKSYHYWRSCNI, “inactive”. CNCVYSSANFCDIMYTNRLG gave an amyloid nucleation score of 1.14 ± 0.085. As for CEGCTYMCSCI, the figure is 0.85 ± 0.1; as for IQWFRQCSFRCSNHYSSAFK, 1.44 ± 0.14; as for VSTGTYFSVIKEEVRLGLLH, 0.537 ± 0.36.

For CLFRDDRNRVDI, the amyloid nucleation score result is “inactive”. In the case of CRCNWENCCMDQL, the amyloid nucleation score result is “inactive”. The entry for RSSVLLS is “inactive”; for QTMKWSIVHGQKTGGSWVDM it is “inactive”; for KGVRCANNVLRKQRLENNNF it is “inactive”.

TIYSLFSLYLGIWQAPASVY had an amyloid nucleation score of -0.455 ± 0.53. With ERRRVRP, the amyloid nucleation score result was “inactive”.

PNHYSYQCALLKRSTEFRHA: the amyloid nucleation score entry is “inactive”.

Take TDFIIRKSYQLLEFYFY: the amyloid nucleation score result is “inactive”. For the substance SVSPEWYSSLLGSLCGAGFL, the amyloid nucleation score entry was “inactive”.

Consider EPTVC, for which the amyloid nucleation score entry was “inactive”.

Consider ANVRMS, for which the amyloid nucleation score result is “inactive”.

FCKLYINQYIYHDSVVVIVG gave an amyloid nucleation score of 2.41 ± 0.06.
